In publication PMC12520364, “UBXN7 facilitates SARS-CoV-2 replication via inhibiting the K48-linked ubiquitination of viral N protein” (PLOS Pathogens, 2025):

Legend:
[1] = biological target: T1, Purified recombinant His-N protein from E. coli (SARS-CoV-2, UniProt P0DTC9 1-419); assay: pull-down; conditions: both partners purified
T1 construct: SARS-CoV-2 N protein, full-length N gene of NC_045512.2 in pET-28a(+); also called prokaryotic recombinant SARS-CoV-2 N protein; not shown: 6xHis, N-terminal, kept

[2] = biological target: T2, Fc-tagged SARS-CoV-2 N protein (SARS-CoV-2, UniProt P0DTC9 1-419); assay: pull-down; conditions: both partners purified
T2 construct: also called N-Fc; SARS-CoV-2 N-Fc

Row | Binder | binding result [1] | binding result [2]
1 | purified HA-UBXN7 (natural protein, UniProt O94888 1-489, looked up, May be the same construct as m1 (pCAGGS-HA); source: purified) MAAHGGSAASSALKGLIQQFTTITGASESVGKHMLEACNNNLEMAVTMFLDGGGIAEEPSTSSASVSTVRPHTEEEVRAPIPQKQEILVEPEPLFGAPKRRRPARSIFDGFRDFQTETIRQEQELRNGGAIDKKLTTLADLFRPPIDLMHKGSFETAKECGQMQNKWLMINIQNVQDFACQCLNRDVWSNEAVKNIIREHFIFWQVYHDSEEGQRYIQFYKLGDFPYVSILDPRTGQKLVEWHQLDVSSFLDQVTGFLGEHGQLDGLSSSPPKKCARSESLIDASEDSQLEAAIRASLQETHFDSTQTKQDSRSDEESESELFSGSEEFISVCGSDEEEEVENLAKSRKSPHKDLGHRKEENRRPLTEPPVRTDPGTATNHQGLPAVDSEILEMPPEKADGVVEGIDVNGPKAQLMLRYPDGKREQITLPEQAKLLALVKHVQSKGYPNERFELLTNFPRRKLSHLDYDITLQEAGLCPQETVFVQERN | binds | 
2 | Purified recombinant UBXN7-his protein (natural protein, UniProt O94888 1-489, looked up, The host of UBXN7-his is therefore told in two ways; also called His-tagged UBXN7; source: HEK293F, transfected, purified (Ni-NTA, Superdex200)) MAAHGGSAASSALKGLIQQFTTITGASESVGKHMLEACNNNLEMAVTMFLDGGGIAEEPSTSSASVSTVRPHTEEEVRAPIPQKQEILVEPEPLFGAPKRRRPARSIFDGFRDFQTETIRQEQELRNGGAIDKKLTTLADLFRPPIDLMHKGSFETAKECGQMQNKWLMINIQNVQDFACQCLNRDVWSNEAVKNIIREHFIFWQVYHDSEEGQRYIQFYKLGDFPYVSILDPRTGQKLVEWHQLDVSSFLDQVTGFLGEHGQLDGLSSSPPKKCARSESLIDASEDSQLEAAIRASLQETHFDSTQTKQDSRSDEESESELFSGSEEFISVCGSDEEEEVENLAKSRKSPHKDLGHRKEENRRPLTEPPVRTDPGTATNHQGLPAVDSEILEMPPEKADGVVEGIDVNGPKAQLMLRYPDGKREQITLPEQAKLLALVKHVQSKGYPNERFELLTNFPRRKLSHLDYDITLQEAGLCPQETVFVQERN |  | binds
